Our source for the stoichiometry N values is paper doi:10.1101/2022.08.02.502557.

This assay has as its target Trimeric LHCII complexes (the major antenna complex of photosystem II) (spinach). As to the kind of experiment: native gel or EMSA.

“Trimeric LHCII complexes (the major antenna complex of photosystem II)” gave a stoichiometry N of 3.
